B1: Cell division control protein 24 (Saccharomyces cerevisiae), P11433 (parent)
chain: MAIQTRFASGTSLSDLKPKPSATSISIPMQNVMNKPVTEQDSLFHICANIRKRLEVLPQLKPFLQLAYQSSEVLSERQSLLLSQKQHQELLKSNGANRDSSDLAPTLRSSSISTATSLMSMEGISYTNSNPSATPNMEDTLLTFSMGILPITMDCDPVTQLSQLFQQGAPLCILFNSVKPQFKLPVIASDDLKVCKKSIYDFILGCKKHFAFNDEELFTISDVFANSTSQLVKVLEVVETLMNSSPTIFPSKSKTQQIMNAENQHRHQPQQSSKKHNEYVKIIKEFVATERKYVHDLEILDKYRQQLLDSNLITSEELYMLFPNLGDAIDFQRRFLISLEINALVEPSKQRIGALFMHSKHFFKLYEPWSIGQNAAIEFLSSTLHKMRVDESQRFIINNKLELQSFLYKPVQRLCRYPLLVKELLAESSDDNNTKELEAALDISKNIARSINENQRRTENHQVVKKLYGRVVNWKGYRISKFGELLYFDKVFISTTNSSSEPEREFEVYLFEKIIILFSEVVTKKSASSLILKKKSSTSASISASNITDNNGSPHHSYHKRHSNSSSSNNIHLSSSSAAAIIHSSTNSSDNNSNNSSSSSLFKLSANEPKLDLRGRIMIMNLNQIIPQNNRSLNITWESIKEQGNFLLKFKNEETRDNWSSCLQQLIHDLKNEQFKARHHSSTSTTSSTAKSSSMMSPTTTMNTPNHHNSRQTHDSMASFSSSHMKRVSDVLPKRRTTSSSFESEIKSISENFKNSIPESSILFRISYNNNSNNTSSSEIFTLLVEKVWNFDDLIMAINSKISNTHNNNISPITKIKYQDEDGDFVVLGSDEDWNVAKEMLAENNEKFLNIRLY
partner: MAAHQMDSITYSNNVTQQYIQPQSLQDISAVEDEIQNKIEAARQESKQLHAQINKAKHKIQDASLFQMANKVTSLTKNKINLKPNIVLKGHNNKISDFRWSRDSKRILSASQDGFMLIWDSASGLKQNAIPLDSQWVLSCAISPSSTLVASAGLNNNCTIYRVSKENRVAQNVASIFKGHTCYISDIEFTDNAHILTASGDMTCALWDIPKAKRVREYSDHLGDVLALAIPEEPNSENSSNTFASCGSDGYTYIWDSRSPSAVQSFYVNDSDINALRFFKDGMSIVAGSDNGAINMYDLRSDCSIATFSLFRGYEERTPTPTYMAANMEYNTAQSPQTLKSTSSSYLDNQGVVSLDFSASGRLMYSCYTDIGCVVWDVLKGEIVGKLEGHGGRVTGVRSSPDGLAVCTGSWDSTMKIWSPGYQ

The source of these data is IntAct's records for PubMed 9428768.

The variants in the test derive from B1. The conditions noted are these: with gbb_yeast STE4, P18851.
S189F: the “effect of a mutation on the interaction” value is listed as “disrupting interaction”.
